In patent EP2265632B1, “CD4-RELATED POLYPEPTIDES AND METHODS OF USE” (priority 2008, dated 2009):

Key:
[1] = molecular target: recombinant HIV-1BaL gp120 (HIV-1 BaL); test: ELISA on immobilized gp120BaL in 25 mM DTT
[2] = molecular target: recombinant HIV-1BaL gp120 (HIV-1 BaL); test: ELISA on immobilized gp120BaL in 100 mM β-mercaptoethanol

Row | Substance | percent of the binding seen under native conditions [1] | percent of the binding seen under native conditions [2]
1 | MAb 2G12 (antibody) | 50% | 50%
2 | MAb IgG1 b12 (antibody) | 50% | 50%
